Measured values as given in patent publication US20100279930A1, “HUMAN PANCREATIC POLYPEPTIDE (HPP) ANALOGUES AND THEIR EFFECTS ON FEEDING BEHAVIOUR” (priority 2007, published 2010).

Tested on: Male C57BL/6 mice
Experiment: In vivo food intake experiments in mice (half-life in the blood judged from appetite suppression)
Design: species or system mouse
Conditions: comparator native human PP; judged from food intake reduction in mice (4-8 h, 0-24 h, 4:1 or 24:1 ratio)
Method: In Vivo Food Intake Experiments
Male C57BL/6 mice (20-30 g) were used for all mouse experiments. Mice were individually housed in IVC cages. Animals were randomized by weight and fasted overnight for 16 hrs before intraperitoneal injection at 9 am. All peptide solutions were prepared freshly the morning of the study and injected as 100 ul. Food intake was measured at 1, 2, 3, 4, 6, 8 and 24 hours post injection. The peptide was dosed at 30 nmol/kg, 50 nmol/kg, 100 nmol/kg, 120 nmol/kg, 150 nmol/kg, 300 nmol/kg, 600 nmol/kg or 1000 nmol/kg depending on the activity. In each case, a control of saline and a control of unmodified human Pancreatic Polypeptide was carried out. All statistics are calculated using a one-way ANOVA with Dunnett's post-test or one-way ANOVA with Bonferroni post-test.
A control of saline was used.
FIG. 2 and in the comparative graph of FIG. 3. […] It is hypothesized that that is as a possible result of stronger activity at the receptor and longer activity.
The mouse is a good model for degradation rates in humans, irrespective of the fact that the receptors for PP in mice are different from the human receptor.

B1: 4055860 (peptide)
chain: CAPLEPVYPGDNATPEQMAQYAADLRRYINMLTRPRYCAPLEPVYPGDNATPEQMAQYAADLRRYINMLTRPRY
modifications: synthetic hPP analogue peptide
- half-life in the blood compared with native human PP: longer half life
